Drawing on a protein production outcome set (Wang et al. 2014), this text covers protein production for 20 sequences.

The series in a line: label from the status in PepcDB records.
Consider “MKTVVIGAGLGGLLSAARLSKAGHEVEVFERLPITGGRFTNLSYKGFQLSSGAFHMLPNGPGGPLACFLKEVEASVNIVRSEMTTVRVPLKKGNPDYVKGFKDISFNDFPSLLSYKDRMKIALLIVSTRKNRPSGSSLQAWIKSQVSDEWLIKFADSFCGWALSLKSDEVPVEEVFEIIENMYRFGGTGIPEGGCKGIIDALETVISANGGKIHTGQEVSKILIENGKAAGIIADDRIHDADLVISNLGHAATAVLCSEALSKEADAAYFKMVGTLQPSAGIKICLAADEPLVGHTGVLLTPYTRRINGVNEVTQADPELAPPGKHLTMCHQYVAPENVKNLESEIEMGLEDLKEIFPGKRYEVLLIQSYHDEWPVNRAASGTDPGNETPFSGLYVVGDGAKGKGGIEVEGVALGVMSVMEKVLGLEHHHHHH”, for which the protein production result is on record as “not failed”. Take “MPWLLPREIAPLHQKALDRYLGSLTERLSDPNVDRNALVREELARLLYGRPYEELLEANPLAAMGLDPEGITFEAEYYAATDLEKFRRVKPLLWFWKVLDLTPLGQSVHSGVAIRRALAPFIFKRVGKNPKFFQNVEFSVGYNLELGDDVVVHRYVFLDDIGGIKIGDRTSLSDYVNVYSHTHHVLASPDVTLKETIIGSGVRITYHATVLAGVRIGDDAMVGTGAVVTKDIPPHAIALGIPARPVRYKVRHDCPYCRKGEPHPSDLVPKLPDRKGNPDYPDFLPPGFGTREAGS”: the protein production result is “failed”. Consider “MSIKVGDVFKYERRFTEEEVFEFANITGDKGRHHMEYDENGRLMVHGLLTASIGTKVGEELHYIARELVSEFIRPVFAGDTITCELTLTNVEQMEGYKKVSIESVYRNQNEKTVLVGTSYGVIRG”, for which the protein production entry is reported as “failed”.

For “METLKKNWTKFILSFIMLVLAIICVYTLSTYKSSEKNTGFLKMGGGFNKSFNSSSRKLNGQPNMKGAPAQHPSNSNANSKSAPPNNFNHNVSKPQRMMGGGEFNSSSKYSSEVLIYSLGFFAIVICAYLAIVKKKIKISTENRGFILAAFLVIGFLFRIIVGLLITGYVTDIGLYKQWALTAAKNLAAVYTNGSVDYPPVYLYVLSIIGKIASSSFMSNYSTLLIKLPSIIADIFSAYFVYRLSIKRFSYETSFALTLFYLFNPAILINSTLWGQADSFFTLLVILAVYFISEDKIVPSSIFFALSVLMKPQGIIFLPLVLFWYIKNKNLKSIFKSIASGFITTIIVLAPFSISKGNITWIFDLYTREVSEYPYASNNAFNFYSLIGANRVKDSNTMFIFSYHTWGMLFIVLITLISGFFYLKSKNKYASTLAALIQVVGVFNFSVGMHERYMFTAVLASILAYIYFKDKRLLLISLLLSFINYANMHTILFNRLNMNVNSSSSMLIVFISLLNITTFVYLIKVCFDLCLKKDIKVTEDIQNTL”, the protein production result is on record as “failed”.

In the case of “MSLIDLYDLRMPQRTGTYVLHEENLAIIETGPSPSVPHLLAGLKALHIDPADIRYIIVTHIHLDHAGGVGVLLEHCPNATVIVHPKGKRHLADPSRLIAGAKAVYGEQFDALFDPIVPVPEERLLVKEDGETLVLSAERTLTFYDTPGHANHHFSIYDSYSGGVFTGDTIGVFYPQLQEAGLAFCLPSTSPNQFNPEAMKQSAERLEKLNPTRIYFGHFGALDQPEEAFRQLRFWLPKFVAAGKEVIARHPEAPAAEQAKAVTKLLHNDITAFLNECSIPASSPVYKVIELDLQVCAMGIIDYWRKQRLEHHHHHH”, the protein production result is reported as “failed”. As for “LNLMMTPMLKVLATPERLAFGLKQMVSYLHANGVTAYMEPGALYTPDMWKLYEQILGAPETPMYATFIADGRGIVDRVGLDGALDAVEQQIAVAPEAPGRKLMFFPGQIKLFADGAIISQLMQMKDGYLDGHQGEWIIPPDELERRARLFWNAGYQIHTHVNGDLGLEKLLDILEKLNAEHPRPDHRSVIVHFANSTEDQVARIKRLGALVSANPYYTTGFADKYSAVGLGPERADAMVRAKSVLDQGVPLSYHSDLPMAPSAPLYLAWCGVNRLTPSGRVAGPEQRVSVDAALRAITIEAAYSWRHEDQ”, the entry is “failed”. As for “MTEVDPRFEAWLSLETGIDAPSLGANALERAVLERARAMLAESSPRRPAVADAAALDAYWLRLNTWPEERQALIEALVVPETWFFRDREAFAELARLAGERLVREPARVLRILSVACSTGEEPYSAAMALLDAGIGPARFAIDAIDISGRAIDQAEHALYGRNAFRGYPLTFRDRYFSEVADGWQLNERVRRRVRFTQGNLFDETMDGEARYDFIFCRNALTYFHRDAQDHAIRRLDAQLADGGVIFVGPAETGPMMRHAMTPARSPLAFAFVRTPPAAKVPARAAPSQQQAPRPAVTGSPTVKPAAPEAASLAVRGGGAALPEHSAAVPVSLSTPLSVPPLRKVLPDLDDARQLTDAGRFDEAEYIIQDIVSLSAPEADTFYLLGVIAHARGRYADAGDFYRKTLYLDPEHYEALTHLAAVLDASGDAVGARQLMLRAQRAMARRDPAHPDAPNRPRGAPGLRRS”, the entry is “failed”. As for “MKFEILQQLNAERAARRPAIVVTDTATGAQRLVKAADIAADPLAAELGKQLRMGKSASIEIDGRKLFLNVYAPTAKLVIVGAVHISQALAPLARSLGYDVTVVDPRTAFASPERFPDVPLIAEWPDVALPPLNIDHYTAFVALTHDPKIDDPALLHAFARDCFYIGALGSKKTHAKRLERLKGQGASDADLGRIHAPIGLAIGAVSPSEIAVSIMAEITAALRLPASSKAAAA”, the entry is “failed”. Consider “MSVKGFFFILVFFLVAIMGFLIYISETVVVKYLYIAEALMLLLMLYLILFYRKIVKPMNTIGSGMELLREQDFSSRLSHVGQQEADRVVNVFNRMMEQLKNERLRLREQNHFLDLMINASPMGVIIMTLDEEVSQLNPMAMKMMGVRPEEAEGRKLSEIDSPLALELAAIPNGETSTVRLNDSSIYKCTHSSFVDRGFQHPFYLMEGLTDEVMKAEKKAYEKVIRMIAHEVNNTTAGITSTLDTVEQALSESEGMEDICDVMRVCTERCFSMSHFITRFADVVKIPEPRFTPTNLNDLAFTCKRFMEGMCNDRNIRLQLICDESLDDVKLDASLFEQVLVNIIKNAAESIGQDGQIIIRTSLPTAIEVVDNGPGISKETEAKLFSPFFSTKPNGQGIGLIFIREVLSRHGCTFSLRTYADGLTRFRILFP”, for which the protein production entry is listed as “failed”. As for “MSHYNPEQLNFVNNHRNNVKEGYFYKNNLLKENNNKMESSKNCIMVPLINNPSHSENNFSKNNRDENINEEKSKYQFEYQNKIIQVPELKYVDKMVYDPVIIEKVKYVPKEVIKYNIIKKPVIKNIITEKKVDVLQVKEKISFKEEEIVEDVYNYVDKDLNTKWNESQYDNEMYKDLTKKKNYIGQNHLLPNNINKMGHINDRTYKHINNNITNLLEPFGPQIDVEENKIIENVFVPNVEKVIEVNKKIDIPINLPVPYIVPKPKIIDVDVPVFKFNDKYVPVPVSKKIIPKITWTDKIYQVDCLIEKPYLVYHNIIKMVPTDSKITVREYPKGIKKINPEELYEVDNLALWMRVNADLKQEHDQMKNEKYETNKKKGKGETEQLDDNISSDHTCECSESYETYEKLSNEEFNSSNEETTIKSSNENILDTLPLHPGHPLEFIHLQNKWINQDTTNIPDMYDQKYLDAHRNAVFNLTTQMPREAEVEAKQLLYIQKKLQQEETL”, the entry is “failed”; as for “MGTKERILEVSKELFFEKGYQGTSVEEIVKRANLSKGAFYFHFKSKEELITEIIERTHKKIISLFEENKEKTPEELLEMFLEVLYREKKVVYIFLFDLLCSEKFRNIYFEKIEDAKRRFEKFLEKHFPSKAEILSEIILGFLRQLILHYVIKEERELPFLKEKLREGLKLIFEGVKKCG”, “not failed”; as for “MDRRDAMGLSGSGSYYIHRGLSGSGPPTFHGSPQQQQGLRHLPNQNSPFGSGSTGFGSPSLHGDPSLATAAGGAGALPHHIGVNMIAPPPPPSETPMKRKRGRPRKYGQDGSVSLALSSSSVSTITPNNSNKRGRGRPPGSGKKQRMASVGELMPSSSGMSFTPHVIAVSIGEDIASKVIAFSQQGPRAICVLSASGAVSTATLIQPSASPGAIKYEGRFEILALSTSYIVATDGSFRNRTGNLSVSLASPDGRVIGGAIGGPLIAASPVQVIVGSFIWAAPKIKSKKREEEASEVVQETDDHHVLDNNNNTISPVPQQQPNQNLIWSTGSRQMDMRHAHADIDLMRG”, “failed”. As for “TERVNLWMHDHGVRRPFRPVVADGYKKTINKNHSVNGSAPNFVHACDAAHLLRTVNAARAEGITQFALVHDSFGSLPSHAARFRQIIREEFVRMYEEHDVLTEVLEQAKCDLDEHNDKLSALVDMRADLTGKLNIKEVLNAEYAFAYP”, the protein production entry is “failed”. For “MQHGPVVRRRKLGAELRALRTSAGITSGEAARLVGWHQSKVSRIETGTSGAKPADVRLLLDAYGVTDEQLRGLLVMLAHSEDAGGRNHWWHAYRGVLPPTYRDFISLESQAAAMRTLETTVVPGLLQTPEYARAVTRAAVDGMPAERLDTLVEVRLARQDVLRGEPPLELSAVLDEAVLRRVVGGPGVMSRQLTRLVEAAQLPHVRIQVLPFAAGAHIGVTGPFVIFSFSSTSDLDVVVLDHLTSSLHLERKEDLEAYTEAFNALLIHALSPEDSLDFIAATAAGA” the value was “failed”; for “MSAIQNGTDEVRVIDTGAPPTRFARGWHCLGLASEFSDGKPHQISAFGTELVVFAGEDGKLNVLNAFCPHMGGNLADGTVKGDTIACPFHDWRWRGDGKCADIPYARRVPPLARTKSWLTLERNGQLFVWNDPQNRKPPAEVTIPEISVFGDEGWTDWVWNKLEVRGSHCREIVDNVVDMAHFFYVHYGMPTYFKNVFEGHVATQVMRSKPRADAVDVKLGTNYDTESASDASYFGPSYMIDKLWTEGDDSGEPNIMLINCHYPISADSFMLQYGVMVKKPEGVPDAVANGIAAQVAAGVAIGFEQDVEIWKKKSSIDNPLLSEEDGPVYQLRRWYEQFYVDVEDINPEMTNRFEFEIDTDRALKNWQVEVDANLAAGRSAIPSPVS”, “not failed”.

On to “MNFDTIIIGGGMAGLSCALRCLEAGLKTAVIASGQSALHFSSGSIDVLAKTPSGKHVINPMDSLETFSKEYPSHPYAALGKETVERAINWYKTTLSAIGVPLTSQKDGLNHYRLTPLGTMKSTWLSQPFVHQFPMDLEKNKTQKMVLITIDGFRDFQPKLAQDNLKQITQLSDLEIATASISLSAFNDIQRNHCELRSIDISRLLSKRANRQELAYALQQHANPGDLVVLPSIFGNGTGLSYLREIEQLTKLTLCEVPTMPPSLLGIRLEESMKHAFIELGGTMLNGDHVVQGEFSYVDKSDPEHSHYRLNRLFTKNHGDFPLQAKQFVLATGSFFSQGLKANVDSMIEPIFGLDIAQSDKRTDWYSHDFFSTQSHPFLSMGIKTTANFQAIKSGHVIDNLYCAGAILSGYNPILEGSGSGVAISSGFHAAESIIEQLQCSDSLQNNNTKAEVAL”, for which the protein production result was “failed”. For “LQCEICGFTCRQKASLNWHQRKHAETVAALRFPCEFCGKRFEKPDSVAAHRSKSHPALLLAPQES” the value was “not failed”; for “MIYENHANTAENNGPLALVLGANGGVGSHVLKMLLQRGWQVRALTRQRVAAGASDGIERVTGDVMNRQDVMDAAKGATLIVHAVNPPGYRDWERQVLPMLDNTIAAAEACGARILLPGTVYNFGPDAFPLLKEDSPQQPFTRKGALRVEMERRLKMASMRGVPVLIVRAGDFFGPDAKNNWFSQMLVRPGKPVRSVQNPAAPHAGHQWAYLPDVAETIGRLLDRSGELPPFAVYHMEGFWDFDGLQLVGAIERAVGRPVKMRRMSWLAIKLAAPFVPLFREVLEMQYLWHMPLRMSNGKLTDFLGAEPKTPVDIAVSATLTSLGCIEQPRVPASLHRPVDAGGRV”, “failed”. For the sequence “MEIEFMTNVAVRRPNLNDVDELYLFFRIVITNTYKNEGLSQSLDDIENEINSKKQYLKSDFDSNGEGRYFLLAIDTSNDKIIGTIEIGPASTLINSCTGGVLKNLYEIGTVFILPEYQRKGIGSLLLHTMFLTLLSRGITEYCLDSGYKNAQSIWTKKFGKPSYVLKDYWGESSDHMIWKKSLHDTPIIFEL”, the protein production result was “failed”.

As for “NYNIYDHPKAAEDRKNTVLYLMHYHKRITDKQWEDAKKIDLKANLVNRTPEERQNIDTNQDSEYNSYVNFVKSELMNNKAFKDENLGNVLQSG”, the protein production result was “failed”.
